Measurements published in patent US20110217401.

Biological target: human apolipoprotein B (apoB) of serum low density lipoprotein particles (UniProt P04114)
Sequence (P04114 28-4563): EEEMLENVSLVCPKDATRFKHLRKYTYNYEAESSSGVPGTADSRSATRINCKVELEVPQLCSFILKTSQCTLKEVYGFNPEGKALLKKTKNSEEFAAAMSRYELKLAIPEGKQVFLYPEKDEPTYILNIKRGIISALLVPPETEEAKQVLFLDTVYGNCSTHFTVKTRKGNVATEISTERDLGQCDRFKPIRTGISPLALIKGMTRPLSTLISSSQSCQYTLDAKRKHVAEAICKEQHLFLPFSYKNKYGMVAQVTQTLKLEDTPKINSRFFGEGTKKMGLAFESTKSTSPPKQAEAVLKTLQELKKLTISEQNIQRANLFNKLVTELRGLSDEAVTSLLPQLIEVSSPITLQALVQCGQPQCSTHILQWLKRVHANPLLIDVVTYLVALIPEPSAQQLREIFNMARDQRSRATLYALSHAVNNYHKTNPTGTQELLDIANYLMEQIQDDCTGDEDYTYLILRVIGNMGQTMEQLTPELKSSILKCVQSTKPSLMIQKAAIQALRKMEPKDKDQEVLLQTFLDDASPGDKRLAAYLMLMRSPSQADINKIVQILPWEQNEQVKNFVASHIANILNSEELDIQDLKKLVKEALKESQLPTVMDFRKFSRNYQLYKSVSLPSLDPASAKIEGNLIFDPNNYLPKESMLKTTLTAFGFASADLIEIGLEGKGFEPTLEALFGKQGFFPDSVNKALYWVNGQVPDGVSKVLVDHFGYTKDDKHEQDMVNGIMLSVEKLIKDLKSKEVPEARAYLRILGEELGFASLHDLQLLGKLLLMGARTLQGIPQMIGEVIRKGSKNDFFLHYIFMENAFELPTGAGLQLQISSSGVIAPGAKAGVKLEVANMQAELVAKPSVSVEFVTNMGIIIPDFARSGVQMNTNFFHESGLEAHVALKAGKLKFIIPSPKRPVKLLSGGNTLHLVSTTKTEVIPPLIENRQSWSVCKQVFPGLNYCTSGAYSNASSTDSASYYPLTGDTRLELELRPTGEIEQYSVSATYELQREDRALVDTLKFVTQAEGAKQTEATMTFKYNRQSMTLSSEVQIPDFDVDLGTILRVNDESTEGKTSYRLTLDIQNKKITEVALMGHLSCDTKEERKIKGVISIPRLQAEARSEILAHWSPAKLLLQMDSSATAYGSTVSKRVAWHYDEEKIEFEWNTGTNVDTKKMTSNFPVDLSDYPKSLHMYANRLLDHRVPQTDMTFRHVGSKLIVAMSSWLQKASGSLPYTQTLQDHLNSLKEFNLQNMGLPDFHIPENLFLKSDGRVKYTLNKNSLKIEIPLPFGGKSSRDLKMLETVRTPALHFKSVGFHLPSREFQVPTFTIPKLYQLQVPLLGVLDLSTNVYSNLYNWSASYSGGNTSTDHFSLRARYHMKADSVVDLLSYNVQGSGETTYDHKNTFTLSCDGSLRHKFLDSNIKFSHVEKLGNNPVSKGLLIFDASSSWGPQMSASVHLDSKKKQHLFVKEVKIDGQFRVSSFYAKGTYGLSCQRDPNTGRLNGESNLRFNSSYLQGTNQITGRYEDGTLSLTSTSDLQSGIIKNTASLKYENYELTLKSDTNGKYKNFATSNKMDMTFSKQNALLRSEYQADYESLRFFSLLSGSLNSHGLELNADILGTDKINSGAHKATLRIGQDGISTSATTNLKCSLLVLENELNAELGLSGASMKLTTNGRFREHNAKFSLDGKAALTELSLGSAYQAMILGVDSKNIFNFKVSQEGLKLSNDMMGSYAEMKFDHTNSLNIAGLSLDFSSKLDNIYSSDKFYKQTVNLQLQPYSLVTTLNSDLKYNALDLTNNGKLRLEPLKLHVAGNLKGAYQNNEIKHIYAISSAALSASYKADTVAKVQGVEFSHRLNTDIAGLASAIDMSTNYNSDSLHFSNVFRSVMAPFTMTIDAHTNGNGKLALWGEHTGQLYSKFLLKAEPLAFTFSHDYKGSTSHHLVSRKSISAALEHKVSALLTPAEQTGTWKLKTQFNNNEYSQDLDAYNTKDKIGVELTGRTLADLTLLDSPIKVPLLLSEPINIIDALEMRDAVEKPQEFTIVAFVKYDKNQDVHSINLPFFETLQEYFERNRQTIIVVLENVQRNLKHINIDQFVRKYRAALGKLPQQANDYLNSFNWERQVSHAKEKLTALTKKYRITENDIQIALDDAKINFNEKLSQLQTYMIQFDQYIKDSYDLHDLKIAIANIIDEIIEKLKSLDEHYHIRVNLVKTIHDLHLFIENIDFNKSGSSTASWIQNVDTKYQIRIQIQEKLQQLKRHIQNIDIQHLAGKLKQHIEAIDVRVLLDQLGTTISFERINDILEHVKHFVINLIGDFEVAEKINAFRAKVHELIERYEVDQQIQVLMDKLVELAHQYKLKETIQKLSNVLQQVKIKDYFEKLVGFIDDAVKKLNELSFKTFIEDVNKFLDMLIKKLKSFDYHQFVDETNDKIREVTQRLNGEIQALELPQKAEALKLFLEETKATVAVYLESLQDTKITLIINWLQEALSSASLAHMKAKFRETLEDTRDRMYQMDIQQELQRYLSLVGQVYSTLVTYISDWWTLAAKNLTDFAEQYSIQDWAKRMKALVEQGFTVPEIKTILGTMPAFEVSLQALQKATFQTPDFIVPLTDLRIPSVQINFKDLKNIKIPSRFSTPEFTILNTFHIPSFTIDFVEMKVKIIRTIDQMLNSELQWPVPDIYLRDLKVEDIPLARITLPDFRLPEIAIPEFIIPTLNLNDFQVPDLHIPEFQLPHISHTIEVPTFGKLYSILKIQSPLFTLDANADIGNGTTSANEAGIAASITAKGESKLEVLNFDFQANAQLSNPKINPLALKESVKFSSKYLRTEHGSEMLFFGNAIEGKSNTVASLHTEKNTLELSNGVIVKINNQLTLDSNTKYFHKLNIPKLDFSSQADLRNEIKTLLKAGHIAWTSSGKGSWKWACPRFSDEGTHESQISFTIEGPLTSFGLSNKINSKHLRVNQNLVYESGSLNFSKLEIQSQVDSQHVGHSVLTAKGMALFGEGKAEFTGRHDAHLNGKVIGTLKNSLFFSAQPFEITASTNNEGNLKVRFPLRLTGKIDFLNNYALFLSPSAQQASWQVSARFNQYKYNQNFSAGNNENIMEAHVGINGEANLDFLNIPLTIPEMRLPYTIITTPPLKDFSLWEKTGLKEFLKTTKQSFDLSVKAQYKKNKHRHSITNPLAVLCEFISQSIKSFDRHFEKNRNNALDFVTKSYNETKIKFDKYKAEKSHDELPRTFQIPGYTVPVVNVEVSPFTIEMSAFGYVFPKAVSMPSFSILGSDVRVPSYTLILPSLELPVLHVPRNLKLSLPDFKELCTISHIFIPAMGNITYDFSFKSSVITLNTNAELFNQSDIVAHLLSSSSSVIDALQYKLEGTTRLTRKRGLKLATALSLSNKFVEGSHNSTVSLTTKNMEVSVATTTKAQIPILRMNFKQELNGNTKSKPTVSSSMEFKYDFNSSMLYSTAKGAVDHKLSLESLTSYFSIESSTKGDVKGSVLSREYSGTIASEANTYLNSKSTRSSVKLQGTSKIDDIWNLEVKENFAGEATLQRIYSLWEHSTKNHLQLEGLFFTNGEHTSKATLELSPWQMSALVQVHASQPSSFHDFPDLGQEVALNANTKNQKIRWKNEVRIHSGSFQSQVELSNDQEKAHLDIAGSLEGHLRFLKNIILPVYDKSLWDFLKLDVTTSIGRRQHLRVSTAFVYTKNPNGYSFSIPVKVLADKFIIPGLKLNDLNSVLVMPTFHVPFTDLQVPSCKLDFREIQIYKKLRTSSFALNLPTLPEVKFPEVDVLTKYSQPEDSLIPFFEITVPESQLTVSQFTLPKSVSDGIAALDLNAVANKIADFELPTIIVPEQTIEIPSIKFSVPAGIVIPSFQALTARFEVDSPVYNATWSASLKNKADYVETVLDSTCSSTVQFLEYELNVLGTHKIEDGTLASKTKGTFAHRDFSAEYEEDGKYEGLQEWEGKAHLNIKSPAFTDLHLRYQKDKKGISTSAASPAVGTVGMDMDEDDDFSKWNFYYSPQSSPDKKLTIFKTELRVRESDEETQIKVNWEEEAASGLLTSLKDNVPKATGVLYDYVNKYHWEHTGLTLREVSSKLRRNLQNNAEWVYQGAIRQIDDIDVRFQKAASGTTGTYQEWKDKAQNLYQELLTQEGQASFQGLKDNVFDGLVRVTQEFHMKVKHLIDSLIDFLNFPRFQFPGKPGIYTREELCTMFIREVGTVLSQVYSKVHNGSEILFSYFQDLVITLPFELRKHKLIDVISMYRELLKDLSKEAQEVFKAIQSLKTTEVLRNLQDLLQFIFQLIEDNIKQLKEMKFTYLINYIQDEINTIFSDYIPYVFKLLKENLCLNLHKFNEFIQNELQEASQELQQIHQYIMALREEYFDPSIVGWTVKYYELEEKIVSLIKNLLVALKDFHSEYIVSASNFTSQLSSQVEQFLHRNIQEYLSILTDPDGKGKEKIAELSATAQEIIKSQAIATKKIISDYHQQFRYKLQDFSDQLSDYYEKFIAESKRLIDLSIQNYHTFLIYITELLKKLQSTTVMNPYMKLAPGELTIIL

## recombinant arNOX SF2 (recombinant apoBNOX, TM9SF2 expressed in E. coli from pET11a-TM9SF2)
  Oxidation of protein thiols of human apoB (DTNB reactivity), nmoles SH oxidized, complete mixture, 2 h (nmoles SH oxidized): 500
  Oxidation of protein thiols of human apoB (DTNB reactivity), relative units, complete mixture, 2 h (relative units): 25
